Reference: US11766479 (ZHEJIANG SHIMAI PHARMACEUTICAL, dated 2023)

T1: recombinant human ENPP3 (full-length extracellular domain) (human, UniProt O14638 31-875)
T1 construct: extracellular domain; Bought protein; also called Human ENPP3 (CD203c) protein
T1 sequence (looked up): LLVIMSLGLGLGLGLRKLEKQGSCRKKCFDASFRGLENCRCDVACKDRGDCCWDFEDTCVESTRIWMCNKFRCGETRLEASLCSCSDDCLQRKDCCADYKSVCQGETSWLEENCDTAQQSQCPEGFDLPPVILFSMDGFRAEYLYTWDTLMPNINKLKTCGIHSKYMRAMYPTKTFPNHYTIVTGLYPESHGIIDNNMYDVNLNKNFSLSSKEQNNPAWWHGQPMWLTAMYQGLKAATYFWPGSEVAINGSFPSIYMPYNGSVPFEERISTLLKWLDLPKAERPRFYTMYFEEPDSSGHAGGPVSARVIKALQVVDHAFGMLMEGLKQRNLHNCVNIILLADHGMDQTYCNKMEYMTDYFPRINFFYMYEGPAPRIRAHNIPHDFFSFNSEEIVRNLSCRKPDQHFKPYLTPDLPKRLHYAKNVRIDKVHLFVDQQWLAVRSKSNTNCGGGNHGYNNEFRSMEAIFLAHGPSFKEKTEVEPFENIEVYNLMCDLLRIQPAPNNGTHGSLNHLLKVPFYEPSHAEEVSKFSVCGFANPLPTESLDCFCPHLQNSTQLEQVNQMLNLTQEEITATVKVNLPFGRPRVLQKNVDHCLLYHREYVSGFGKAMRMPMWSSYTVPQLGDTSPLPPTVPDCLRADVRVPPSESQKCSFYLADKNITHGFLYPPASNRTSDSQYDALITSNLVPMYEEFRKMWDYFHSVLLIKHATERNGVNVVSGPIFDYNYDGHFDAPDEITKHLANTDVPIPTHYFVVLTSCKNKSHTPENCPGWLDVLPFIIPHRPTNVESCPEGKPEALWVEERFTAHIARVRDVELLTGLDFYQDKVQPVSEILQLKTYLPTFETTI


Columns and labels:
[1] = target: T1, recombinant human ENPP3 (full-length …); assay: ELISA, recombinant human ENPP3 coated at 200 ng per well, detection with HRP anti-FLAG
Method: The hexahistidine (HHHHHH, SEQ ID NO: 35)-tagged 3A10 Fab was expressed in *E. coli* strain HB2151 and purified from the soluble fraction of periplasm by using the Ni-NTA resin. Then ELISA was performed by using standard protocols to measure binding affinity to recombinant human ENPP3 (full-length extracellular domain). Briefly, the recombinant human ENPP3 (ACROBiosystems) was coated on Corning EIA/RIA high-binding 96-well plates (Corning Inc.) at 200 ng per well overnight at 4° C. and blocked with 3% nonfat milk in PBS (pH7.4). Five-fold serially diluted antibodies were added accordingly and then incubated at room temperature for 2 h. The plates were washed with PBS containing 0.05% TWEEN® 20. Bound antibodies were detected by HRP-conjugated anti-FLAG tag antibody (Sino Biological). The assay was developed at room temperature with TMB substrate (Solarbio) and OD value was measured at 450 nm with a microplate reader.

[2] = target: T1, recombinant human ENPP3 (full-length …); assay: ELISA, recombinant human ENPP3 coated at 100 ng per well, detection with anti-human IgG Fc-peroxidase
Method: ELISA was performed according to standard protocols, to determine binding affinity of anti-ENPP3 3A10 mAb to recombinant human ENPP3 (AcroBiosystems). Briefly, recombinant human ENPP3 was coated on Corning EIA/RIA high-binding 96-well plates (Corning Inc.) at 100 ng per well overnight at 4° C. and blocked with 3% nonfat milk in PBS (pH7.4). Five-fold serially diluted antibodies were added and incubated at 37° C. for 1 h. The plates were washed with PBS containing 0.05% TWEEN® 20. Bound antibodies were detected by anti-human IgG (Fc-specific)-peroxidase antibody (Sigma). The assay was developed at room temperature with TMB substrate (Solarbio) and monitored at 450 nm with a microplate reader. The half-maximal binding ($EC50$) was calculated by fitting the data to the Langmuir adsorption isotherm.

Binder	EC50 [1] [nM]	EC50 [2] [nM]
hexahistidine-tagged 3A10 Fab (Fab, V domains shown, Human Fab from a phage library with a lambda light chain, made in E. coli HB2151; also called Fab 3A10; anti-ENPP3 Fab 3A10) VH: EVQLVESGGGLVKPGGSLRLSCAASGFTFSNAWMSWVRQAPGKGLEWVSYISSSGSTIYYADSVKGRFTISRDNAKNSLYLQMNSLRAEDTAVYYCARLAGPYYFDYWGQGTLVTVSS VL: QSVVTQPPSVSAAPGQKVTISCSGSSSNIGNNYVSWYQQLPGTAPKLLIYDNNKRPSGIPDRFSGSKSGTSATLGIDGLRTGDEAEYFCGVWDSSLRAELFAGGTKVTVL	9.17	–
anti-ENPP3 3A10 mAb (antibody, human IgG1, lambda, V domains shown, Intact human IgG1 with wild type Fc and a lambda light chain, expressed in 293FS cells; also called anti-ENPP3 monoclonal antibody) VH: EVQLVESGGGLVKPGGSLRLSCAASGFTFSNAWMSWVRQAPGKGLEWVSYISSSGSTIYYADSVKGRFTISRDNAKNSLYLQMNSLRAEDTAVYYCARLAGPYYFDYWGQGTLVTVSS VL: QSVVTQPPSVSAAPGQKVTISCSGSSSNIGNNYVSWYQQLPGTAPKLLIYDNNKRPSGIPDRFSGSKSGTSATLGIDGLRTGDEAEYFCGVWDSSLRAELFAGGTKVTVLS	–	0.107
